Results published in patent publication US10787640B2, “Producing mesodermal cell types and methods of using the same” (The Board of Trustees of the Leland Stanford Junior …, priority 2015, dated 2020).

Columns and labels:
[1] = system: day 3 early somite progenitors; experiment: Patterning of early somite progenitors into sclerotome or dermomyotome; assay type: cell-based, human
Description: Day 2 paraxial mesoderm was briefly washed (DMEM/F12) and further differentiated into day 3 early somite/somitomere precursors for 24 hours (1 μM A-83-01+250 nM LDN-193189+1 μM C59+500 nM PD0325901). Subsequently, day 3 early somites were dorsoventrally patterned into either ventral somites/sclerotome (5 nM 21K+1 μM C59) or dorsal somites/dermomyotome (3 μM CHIR99021+150 nM Vismodegib). Sclerotome induction was conducted for 48-72 hours (leading to day 5-6 ventral somite progenitors). […] Media was changed 24 hours for all steps. The Hedgehog agonist 21K, which has been previously described in, e.g., Brunton et al., 2009 the disclosure of which is incorporated herein by reference in its entirety, was commercially synthesized.
Day 3 early somites were briefly washed (DMEM/F12), treated with BMP4+CHIR99021+Vismodegib for 24 hours, washed again (DMEM/F12) and subsequently treated with CHIR99021 (3 μM)+21K (5 nM) for 24 hours. This day 5 dermomyotome was further empirically differentiated towards skeletal muscle-like progeny (using medium containing 2% horse serum, which has been previously described in, e.g., Xu et al. 2013, the disclosure of which is incorporated herein by reference in its entirety) for 12 days, yielding day 17 skeletal muscle-containing populations.
FIG. 11: A) To determine the length of time required for sclerotome differentiation, a qPCR timecourse was performed, encompassing undifferentiated hESCs (D0), day 2 hESC-derived paraxial mesoderm (D2 PXM), day 3 hESC-derived early somite progenitors, and hESC-derived day 3 early somite progenitors that were exposed to sclerotome inductive conditions (5 nM 21K+1 μM C59) for 24 or 48 hours. B) Description of EF1α-BCL2-T2A-GFP lentiviral construct (otherwise known as “C306”; top) and FACS plot of a stably-transduced polyclonal H9 hESC line with near-uniform expression of the BCL2-T2A-GFP transgene (green contour) by comparison to uncolored wild-type hESCs (bottom) (see above methods for details of derivation of the H9 BCL2-T2A-GFP hESC line). C) Higher-magnification picture of BCL2-T2A-GFP hESC-derived sclerotome ectopic bone grafts (originally described above in FIG. 4, panel E), showing that despite the near-ubiquitous expression of GFP throughout the ectopic bone graft (indicating its human provenance), the blood vessels are clearly GFP-negative and therefore presumably derived from the mouse host; scale bar=1 mm. […] L) Description of EF1a-BCL2-T2A-GFP lentiviral construct (otherwise known as “C306”; top) and FACS plot of a stably-transduced polyclonal H9 hESC line with near-uniform expression of the BCL2-T2A-GFP transgene (green contour) by comparison to uncolored wild-type hESCs (bottom) (see the methods described herein for details of derivation of the H9 BCL2-T2A-GFP hESC line). M) Description of UBC-Luciferase-T2A-tdTomato lentiviral construct (top); bioluminescent assay of cultured H9 UBC-Luciferase-T2A-tdTomato hESCs validates that these cells are luciferase-expressing in vitro (bottom).

[2] = system: day 5 hematopoietic intermediates; experiment: Day 5-7 continued differentiation of hematopoietic intermediates, factor withholding; assay type: cell-based, human
Description: SOX17^mCherry/+ H9 hESCs (referred to as SOX17-mCherry hESCs throughout this study) were routinely propagated in mTeSR1 (StemCell Technologies)+1% penicillin/streptomycin. They were passaged ˜1:12-1:25 as fine clumps using Accutase (Gibco) onto plates precoated with a Geltrex substratum (Gibco) in mTeSR1 medium supplemented with thiazovivin ([…]; a ROCK inhibitor). After overnight plating, hESCs were washed (DMEM/F12) and differentiated towards posterior PS using BMP4 (15-40 ng/mL, R&D Systems), CHIR99021 ([…]), FGF2 (20 ng/mL, Invitrogen) and PIK90 (100 nM, Calbiochem) for 24 hours, with the optional inclusion of Activin (30 ng/mL, R&D Systems) to induce mid PS. Day 1 mid or posterior PS was subsequently washed (DMEM/F12) and further differentiated using BMP4 (40 ng/mL), GDC-0941 (0.25-2.5 μM, Cellagen Technology), Forskolin (10 μM, Tocris), SB-505124 ([…]), VEGF (100 ng/mL, R&D Systems), XAV939 (1 μM, Tocris) and ascorbic acid-2-phosphate (200 μg/mL, Sigma) for 24 hours. Day 2 cultures were further directed into the definitive hematopoietic lineage/hemogenic precursors by Activin A (15 ng/mL), GDC-0941 (0.25-2.5 μM), VEGF (100 ng/mL), XAV939 (1 μM) and ascorbic acid-2-phosphate (200 μg/mL) for 24 hours. Day 3 definitive hematopoietic progenitors were subsequently differentiated into early Runx1^lowGfi1^low hemogenic intermediates through day 4-5 treatment with BMP4 (50 ng/mL), TTNPB (500 nM), VEGF (100 ng/mL) and XAV939 (1 μM) for 48 hours, supplemented with SB-505124 (2 μM) on day 5. Day 5 populations were then dissociated into single cells, counted and reaggregated in individual wells of a low-adhesion V-bottom or U-bottom 96-well plate (e.g., Thermo Fisher, catalog no. 249952) with ˜15,000-20,000 cells seeded per well. Aggregates were cultured for 48 additional hours until day 7 in BMP4 (50 ng/mL), TTNPB (500 nM), VEGF (100 ng/mL), XAV939 (1 μM), SB-505124 (2 μM), SCF (25-50 ng/mL, R&D Systems), IL6 (10 ng/mL, R&D Systems) and IL6RA (250-1000 ng/mL, R&D Systems). All differentiation was conducted in serum-free CDM2 fully-defined basal media.

Cc1cnc(-c2cnc(NCCNc3ccc(C#N)cn3)nc2-c2ccc(Cl)cc2Cl)[nH]1 [CHIR99021, 6-[[2-[[4-(2,4-Dichlorophenyl)-5-(5-methyl-1H-imidazol-2-yl)-2-pyrimidinyl]amino]ethyl]amino]-3-pyridinecarbonitrile]
dorsal somite marker PAX3 and sclerotome fate ([1]; CHIR together with Vismodegib): sustained dorsal somite marker PAX3 while inhibiting the sclerotome fate

Cc1cccc(-c2[nH]c(C(C)(C)C)nc2-c2ccc3c(c2)OCO3)n1 [SB-505124, 2-[4-(1,3-Benzodioxol-5-yl)-2-(1,1-dimethylethyl)-1H-imidazol-5-yl]-6-methyl-pyridine]
GFI1B expression ([2]; individually withholding the factor from the 8 factors, 48 hours): strongly diminished

B1: BMP4: BMP family ligand, BMP agonist (protein, UniProt P12644 293-408, looked up)
Bone morphogenetic protein 4: SPKHHSQRARKKNKNCRRHSLYVDFSDVGWNDWIVAPPGYQAFYCHGDCPFPLADHLNSTNHAIVQTLVNSVNSSIPKACCVPTELSAISMLYLDEYDKVVLKNYQEMVVEGCGCR
hematopoietic or venous gene expression ([2]; withdrawal of the factor): minimally effected hematopoietic or venous gene expression
PAX7 expression ([1]; 3 μM CHIR99021+150 nM Vismodegib, 48 hours, BMP4 10 ng/mL): greatly enhances the expression of PAX7
PAX7 induction in central dermomyotome ([1]; CHIR99021+Vismodegib+BMP4, 24 hours): important to induce PAX7 in central dermomyotome
